The values that follow come from publication PMC5095703 (Biochemistry, 2016).

One data set deals with FdhC-C-term tag (Acinetobacter nosocomialis, UniProt V5RDR9). In words: X-ray crystal structure, […] Å. Type of data set: binding. The settings on record: ternary complex with dTDP-Fuc3N(R3Hb) (also with dTDP-Qui3N(R3Hb)), pH 5.0.
For data set [1], the system named is CC(=O)SCCNC(=O)CCNC(=O)[C@H](O)C(C)(C)COP(=O)(O)OP(=O)(O)OC[C@H]1O[C@@H](n2cnc3c(N)ncnc32)[C@H](O)[C@@H]1OP(=O)(O)O. In words: purified protein. The settings on record: 5 mM dTDP-Fuc3N, 50 mM HEPES pH 7.5, 5 mM DTNB.
The test system of data set [2] is Cc1cn([C@H]2C[C@H](O)[C@@H](COP(=O)(O)OP(=O)(O)O[C@H]3O[C@H](C)[C@@H](O)[C@H](N)[C@H]3O)O2)c(=O)[nH]c1=O. Put plainly: purified protein. To be noted: 1 mM 3-hydroxybutanoyl-CoA, 50 mM HEPES pH 7.5, 5 mM DTNB.
Data set [3] concerns Cc1cn([C@H]2C[C@H](O)[C@@H](COP(=O)(O)OP(=O)(O)O[C@H]3O[C@H](C)[C@H](O)[C@H](N)[C@H]3O)O2)c(=O)[nH]c1=O. In words: purified protein. To be noted: 1 mM 3-hydroxybutanoyl-CoA, 50 mM HEPES pH 7.5, 5 mM DTNB.

As for `CC(C)(COP(=O)(O)OP(=O)(O)OC[C@H]1O[C@@H](n2cnc3c(N)ncnc32)[C@H](O)[C@@H]1OP(=O)(O)O)[C@@H](O)C(=O)NCCC(=O)NCCS` [CoA], the “X-ray crystal structure, 1.8 Å” value at FdhC-C-term tag was “the observed electron density for the CoA and the dTDP-Fuc3N(R3Hb) ligands”.

The term Km denotes the concentration of substrate that gives half-maximal velocity. The term kcat denotes the maximal rate divided by the concentration of active sites. As usually defined, the kcat/Km is the turnover number divided by the Michaelis constant. For FdhC (Acinetobacter nosocomialis), in data set [1], the Michaelis-Menten constant (Km) worked out at 0.04 ± 0.01 mM, the kcat stood at 0.0034 ± 0.0002 s⁻¹ and the catalytic efficiency (kcat/Km) stood at 85 M⁻¹ s⁻¹. Further, in data set [2], the Michaelis-Menten constant (Km) is on record as 5.3 ± 0.8 mM, the catalytic constant (kcat) was 24.7 ± 1.7 s⁻¹ and the kcat/Km is 4700 M⁻¹ s⁻¹. In addition, in data set [3], the Km was 0.65 ± 0.07 mM, the catalytic constant (kcat) was found to be 52.7 ± 2.1 s⁻¹ and the kcat/Km was determined as 81000 M⁻¹ s⁻¹.

Take “FdhC-C-term tag (Acinetobacter nosocomialis)”: in data set [3], the Km worked out at 1.5 ± 0.2 mM, the kcat worked out at 38.3 ± 1.9 s⁻¹ and the kcat/Km turned out to be 26000 M⁻¹ s⁻¹.
